Test results taken from PMC12216326.

Tests used:
[1] = molecular target: GST-DDX39B (residues 1-428) (human) (UniProt Q13838)
[2] = molecular target: GST-DDX39B (residues 1-428) (human) (UniProt Q13838); remark: listed apart in the source

UniProt Q13838, sequence (Q13838 whole entry, the tested form may be a part): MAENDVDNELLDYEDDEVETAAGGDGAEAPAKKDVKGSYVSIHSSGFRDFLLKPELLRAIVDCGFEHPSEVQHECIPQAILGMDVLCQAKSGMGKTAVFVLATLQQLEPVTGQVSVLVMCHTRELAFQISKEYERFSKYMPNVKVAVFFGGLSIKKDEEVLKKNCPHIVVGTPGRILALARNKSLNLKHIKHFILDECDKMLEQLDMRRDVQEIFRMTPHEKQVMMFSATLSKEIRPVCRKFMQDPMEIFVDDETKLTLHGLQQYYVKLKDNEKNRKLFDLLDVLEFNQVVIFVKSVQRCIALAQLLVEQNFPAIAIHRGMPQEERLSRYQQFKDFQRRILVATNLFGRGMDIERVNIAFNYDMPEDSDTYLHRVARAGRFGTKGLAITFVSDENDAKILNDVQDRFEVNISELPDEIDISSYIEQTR

Row | ATPase activity of DDX39B (NADH enzyme-coupled assay with poly(A) RNA), stimulation by TREX-2.1 [1] [fold] | ATPase activity of DDX39B, stimulation by TREX-2.1-mut against wild-type TREX-2.1 (fold reduction) [2] | Substance
1 | 80 | – | TREX-2.1 complex (LENG8 residues 490-800/PCID2/DSS1) (from UniProt Q96PV6-2 490-800; Q5JVF3 1-399; P60896 1-70)
2 | – | 4 | TREX-2.1-mut (LENG8 residues 490-800 with 563RLTCAP568 replaced by GGGG/PCID2/DSS1) (from UniProt Q96PV6-2 490-800; Q5JVF3 1-399; P60896 1-70) (complex)
